Laboratory results from the DeepSol protein solubility set.

test: soluble on expression in E. coli; label from the status in PepcDB or PDB records

Row | Sequence | soluble on expression in E. coli
1 | MGSSHHHHHHSSGRENLYFQGHMQWETVIGLEIHAQLATQSKIFSGSSTAFGAAPNTQASLVDLAMPGTLPVLNEEAVRMACLFGLAIDARIDRQNVFARKNYFYPDLPKGYQTSQMDHPIVGKGHLDITLEDGTTKRIGITRAHLEEDAGKSLHEDFQGMSGIDLNRAGTPLLEIVSEPDIRSAKEAVAYVKAIHALVRYLGICDGNMAEGSLRCDCNVSVRPKGQAEFGTRAEIKNVNSFRFIEKAINHEIQRQIELIEDGGKVVQETRLYDPNKDETRSMRGKEEANDYRYFPCPDLLPVVIEPEYLAKLREQLPELPVQKRERFESQYGLSAYDASVLSASREMADYFEKVQGICGDAKLAANWVMVELGSLLNKDGLEIEQSPVSAEQLGGMILRIKDNTISGKLAKMVFEAMANGEGSADQIIEAKGLKQVTDSGAIEKMLDEVLAANAEQVEQYRAADEAKRGKMFGFFVGQAMKASKGKANPQQVNELLKKKLEA | soluble
2 | MVHIRLSFITFSLILFLVVDMVKIPKSHPRYWSLLYREKIIEGMEKGITAKAGLIAHGRGEAFDYLIGEKTIPPAETAMRAAIAKLLLAKHPVISVNGNVAALVPKETVELAKVLNAKLEINLFYRTEERVKKIAEVLYENGADEVLGINPTKRIPGLESERGKVDENGIWKADVILVPLEDGDRTEALCRMGKFVITVDLNPLSRSARMADITIVDNIVRAYPRMIELAKEMKSLPKEDLEKIVATYDNSKVLSEVLIHIRDRLTKLAEGGIWKKEKLEHHHHHH | not soluble
3 | DIECPTCGRPMGIRTASTGVFLGCSGYALPPKERCKTTINLGDEEGIINVLEEDVETAALRAKKRCPICETAMDAYLIDDKRKMHVCGNNPNCEGYVVEYGEFKVKGYDGPVVECDKCGSDMVLKNGRFGKYMDCTSETCKNTRKILK | not soluble
4 | MSDKISFLPPEPIQLLDEDSTEPELDIDSQQENEGPISASNSNDSTSHSNDCGATITRTRPRRSSSINANFSFQKAHVSDCTIVNGDHGTKFAVWRITVFLEPNLKAFAAKRESYKIQTYKRYSDFVRLRENLLTRIKTAKPEKLNCLQIPHLPPSVQWYSSWKYQEVNLNKDWLAKRQRGLEYFLNHIILNSSLVEMTKDILIQFLEPSKRVA | soluble
5 | MSLMTDDIDQRLINALMADSRLSLKALAQVSGLSAPSVAERLRKLEERGVIRGYTLDVDPRCFGYQFQAIVRIRPLPGRLHEVERQIQDIAEFTECDKVTGDDCFIARLQVRSMEQLDTLLDRINGYAETNTAIVKKSPVKRRLPPMT | soluble
6 | MTSWADIQKLASDLQRVQLSQSSKKLSEVNCIEVLQKLIASHRIDVVYTRDGHSYVTKNHLETEIKNECIAAGGRASLTDIAVALNIDFDHIEKTSRLIVSTDDEFTISNAEIFATEYVHRLRNELRTLLDEQGNQTTAALCKHWNLSSELLQSLLIEKLGSSDFQGVVDGDTIYTSSFLNARQLVLRAILIALTKITPISTIQKRVGLTPKRFWIAFENLQSLGEIPGTLIGSRTSPSCSYRPMMYDHLVKSCVLNQYRQNEFLEISTLKTLGVDAKPALEEVLGSSEFKKLVSMRSMFMTKELMDQCINAVQEDLQKSGISDVHLALQSLNLPLDTADEDEIGSKVANVEKDSHFAEGFVFKGAVLTEALRSIDKLLDVRAHEEVDRLEAEKKKQGGAKAAVKVQEETDDWGDGKKGGKGGKKNAKSVKGGSKSSAPSTSSNLSANISINSEELEIWLRESQSVPEEILSVIVEKLNQETTTLLRKKVQDIQAHQLVASVANSKKSLSAIGDKCRQLYDSFNTFETATSTFADPLGSDLRQYLLKTVGNEIALALLSYVMGVDNAHQLKEKQREETIENLPEMLRDPIRSVFASLKSTDDDALDKFHDAVYNCSAPSATSLALKKVDKKGRAEVGAKITAELHEQLCSQTEPATTLLLSVLYILAKAGRPTTASGKFVSQLVAQIKDLCPENVFDLLQACQKGVVTCIKNKGDEVAKEMLVNDISSLKQSIMP | not soluble
7 | MKTSPRRPLILKRRRLPLPVQNAPSETSEEEPKRSPAQQESNQAEASKEVAESNSCKFPAGIKIINHPTMPNTQVVAIPNNANIHSIITALTAKGKESGSSGPNKFILISCGGAPTQPPGLRPQTQTSYDAKRTEVTLETLGPKPAARDVNLPRPPGALCEQKRETCADGEAAGCTINNSLSNIQWLRKMSSDGLGSRSIKQEMEEKENCHLEQRQVKVEEPSRPSASWQNSVSERPPYSYMAMIQFAINSTERKRMTLKDIYTWIEDHFPYFKHIAKPGWKNSIRHNLSLHDMFVRETSANGKVSFWTIHPSANRYLTLDQVFKQQKRPNPELRRNMTIKTELPLGARRKMKPLLPRVSSYLVPIQFPVNQSLVLQPSVKVPLPLAASLMSSELARHSKRVRIAPKVLLAEEGIAPLSSAGPGKEEKLLFGEGFSPLLPVQTIKEEEIQPGEEMPHLARPIKVESPPLEEWPSPAPSFKEESSHSWEDSSQSPTPRPKKSYSGLRSPTRCVSEMLVIQHRERRERSRSRRKQHLLPPCVDEPELLFSEGPSTSRWAAELPFPADSSDPASQLSYSQEVGGPFKTPIKETLPISSTPSKSVLPRTPESWRLTPPAKVGGLDFSPVQTPQGASDPLPDPLGLMDLSTTPLQSAPPLESPQRLLSSEPLDLISVPFGNSSPSDIDVPKPGSPEPQVSGLAANRSLTEGLVLDTMNDSLSKILLDISFPGLDEDPLGPDNINWSQFIPELQ | soluble
8 | MKQRQWQGWGPGEQAEQQHYLVQPRALAGGGDIRHVSEFLRASGWRDKSKTCGPLLMESPDRTVRVAYDPYILPGGWTIHGRTGAKGEWSAHLGLQTPVEIVAGLTDALTRPRSAHAPSVWEPLQEQNWHTRFADQNYTATSPDGAAWMQYRQDADGSAMWWTGAKDEEGNGWTAHFTPNTPMHLVQAFSTELAGPDPVMRPRGRVPHSAQIRTWSVSVKPSQLSAWQQARITAARAATWARSSTRGTRPRTTARPHTPTGGARTRRLEHHHHHH | not soluble
9 | MGSDKIHHHHHHMNTKVMTAIPFTIDRDWLFTHLHIKPGKPYVEDVENMIEQALTIGKPKAAYRLAYIESKGEDFVVVDGFKFTSRVLRVNLAETFKVVPYVITCGEELERWAKTFHHMFESYCADGIMEAVMHSARVAFFSQIAEEYNLGHAVNMNPGSLEDWPLKEQAPLFQLLGDVKSLIGVELKESFLMSPIKTVSGFRFSKEGSYENCQLCPREKCPGRRAPYEQNLYAEKYQLK | not soluble
10 | VALAATRAFYWIEAQSPDAATAFAQRVFDLYFSDRLDTASPEAVSRLGPEVGLEPEALLAGIADPALKETVRKIGEDAVARGIFGSPFFLVDDEPFWGWDRMEMMAEWIRTGGW | not soluble
11 | MSLESILITGASGFIGSFIVEEALKRKFGVWAGIRPTSSKKYLKNRKIHFLELDFAHPNELRAQLSGHKGTYNKFDYIIHCAGVTKCPDKNTFDYVNYLQTKYFIDTLKALNMVPKQFIYISTLSVFGPVREKDYSPIEAGDVPMPNTAYGLSKLKAELYIQSIPGFPYVIYRPTGVYGPRELDYFLMAKSIRQHVDFSVGFRRQDLTFVYVKDIVQAIFLGIEKKVTRRAYFLTDGKVYNSRVFSDLIQKELGNPFVIHVKCPLIVLKVISLLAEFIATRSGKSSTLNSDKYKIMKQRNWQCDITPAINELGYAPEYDLEKGVRETIDWYKNEGWEGHHHHHH | soluble
12 | MKRLNCRRKGIRVRILAIDTSNQTLSIAVCENQKILGSYTATVKRNHSLTLMPAIDYLMSQLNLAPTAIDRFVVAEGPGSYTGLRLGVTTAKTLAYTLKKELVGISSLQTLAANCVGQTGLIVPLFDARRKNVYAGAYRFVNGVWQNELPDQHISLRELLEQLKNEPNLFFVGEDVEKFTEEIAQIIPHGEICDVPQWQIPNAAVLAALGSVAEPVENVHGFLPAYLKKVEAEENWLKTHTPNGESYVEKLLEHHHHHH | not soluble
13 | MTQVYDGFVHLGFSNRNGRTISHKKYQEGNSRVSADNSDANGVPYYFLINMGGGFVEGEQYQVTIDVNKDAHALVTTQTPTYVYKCEKGQLTQQNTSITLEENSYLEYMADEVIPYLKSRYFQTSRIDMDKSAHLIYSDGVTAGWSHEDLPFQYHYFRNLTQIYQDNELVYSDQTLLEPEKQDMFKLGYFEGWRNYNSLVMVSPNIDEAFVKALQKHLEGLNLESDFAISSLDISGLVLRILGKTAEDNRRIIYSCADYFRQEIHGLTPLNLRKNDMRRLEHHHHHH | soluble
14 | MGSDKIHHHHHHMIDEIKSGKYKHGDKLPTEKELMERFNASRETVRKALERLVVKNLVIRKPGLGTFVNIEKKNKVVGILVQQITSYIFPYIALGAEEVLFANGYKMLLGNASEDPHKERQIINEWLEVGVDGLIIDPVYSATKRSNRDLIEDMAKKGTKVVLVHTNWDIEGVGSVVLDDWYGGEKAAEIFYQYGHRNVAVLYKTIHLPSVVRAQAFLKRGRELGFEKVHEKSFHVSEFTGIVMQSAFELLSLPKDQRPTAVFCYNDATALQFFLAAKRMGLKIPEDVSVIGFDDAPIGDFREILTTFEHPKEEVGKKAVEILLKMIDGEKPEKYVFKPKLIMRESVTYPKK | not soluble
15 | MNDIEAAFHQYFEIIDADTPELLKTVFDLRYRILCVHNVIPGFDTNNYPNELESDQYDSHSIHFLLRHRPTNTFIGTTRLILPNPLDPMDKFPTELNTHFYPGFVLDSSSRKHTTEVSRFAILSDFFKRKGERNMLSQSTEIGCKAQERRRFPHPMLGLVVGLIQLCARNNIYHLISAMEPALNKLLGFYSLQMNPIGPPADYHGLRTPYYLYLPDLLDRMYQDHRSLWELITDHGRIWPMNLACIHQKTLKTAYTDNVYISE | not soluble
16 | FEEHLKKKPLRERLLEIPELRTEGLRDCQVMAISNLEKSFKDYRPRALIQMATGSGKTYTAITFIYRLLKFADARKVLFLVDTKNLGEQAEQEFMAYVPNDDNRKFTELYNVQRLRSSYISSDSQVCISTIQRLYSILKGEDLDEKTEEENPAERGWQLKEPLPVVYNEKVPIEEFDFIVIDECHRSIY | not soluble
17 | MTEFTLAHLSDPHLPLPPKTSLRHLASKRALGYLNWRRNRHLIHRRDILDTLVADLQAQQPDHIAVTGDLVNIALVNEFAPARQWLESVGPADRVSLVPGNHDAYVRSTAHRFAETFPDYISGDDATPGFPYLRRREAIAIIGVSSAVPTAPLRATGWLGAPQRAALEALLQSLAGERVFKVLLIHHPLQSRSRHKRLTDAADLIALLQRHPVDLVLHGHDHVHATVRIDTPFGAIPVVGVPSASAMNDRHRPSAAYNLFKISEGNDGWRCLEHHHHHH | not soluble
18 | MAPILSHSIPIPSSMQANWQQMLNLLAEVLKVSATLIMRLRHHDLDVFCTSVGSDNPYQVGMTERLGTGLYCETVVNTRQILLVSNADLDPLWKDNPDLELGMRAYCGVPLQWPNGELFGSLCVTDRQARQFLSTDQQLIKTFAESIEAQLKTLYQRETLLQMNQ | not soluble
19 | GAEKEDLVQEGILGLLKAIKFYDETKSSFSSFAFLCIRREMISAIRKANTQKHMVLNEALKTNAILEDSAYFDDEGHNINNYKSSESNPEEAYLLKEEIEEFKKFSENNFSKFEKEVLTYLIRGYSYREIATILSKNLKSIDNTIQRIRKKSEEWIKEEENIKR | soluble
20 | RAKKETTMTDVRIQALHFDATDQLKDFVQKKISKLNRLSDGITGAEVVLKLVKPETVQNKEASIRLYIPGDDLFAEKIADTFEEAIDLTVDALKRQIEKRKEQRK | not soluble
21 | MKKALSLLTVSALSIGMLSACGPKDSGKKEESKAKKDYDLLVWEDDKKGVGLEPAVKSFEEKYKVKVKVVEMQMTDQVKKLRLDGPAGTGPDVVTLPHDQIGNAVTEGLLSEVKADDAVKSKFTDSSIEAQTYNGKLYGLPKAIETPVFIYNKKLMPKAPETMDELFNFSKEFTKDGKYGFLALGDNFYFANAFMAGMGGYVFGEKDGKPNASDVGLNNSGAVQGAEYLQKWYKEKLFPKGIIGESGGPAADGLFNEGKAASIMNGPWAFQAMEKNGIDYGVAPMPKLPNGQPLKTFVGVKGWHVTSFSKQNDLATKFTEWVTNEENAKIRFEKTKEIPPVKAVMEDPIIKDNEAAKAVATQSENGIPMPNIPEMQEVWKPAGDALQLVVTDKEAPKAALDSAVKQIKGNIEANHSKQK | not soluble
